Assay results taken from patent US20250340613A1 (JOINT STOCK COMPANY BIOCAD, published 2025).
One block for each binder: values may come before it.

How the values were obtained:
[1] = molecular target: T1, IL5R-His, Interleukin-5 receptor subunit alpha (Homo sapiens) aa 22-342 (Homo sapiens, UniProt Q01344 22-342); assay: BLI Octet RED 384; antibody on ProA sensor, antigen 30 ug/ml
T1 construct: not shown: His tag as the name implies
T1 sequence (looked up): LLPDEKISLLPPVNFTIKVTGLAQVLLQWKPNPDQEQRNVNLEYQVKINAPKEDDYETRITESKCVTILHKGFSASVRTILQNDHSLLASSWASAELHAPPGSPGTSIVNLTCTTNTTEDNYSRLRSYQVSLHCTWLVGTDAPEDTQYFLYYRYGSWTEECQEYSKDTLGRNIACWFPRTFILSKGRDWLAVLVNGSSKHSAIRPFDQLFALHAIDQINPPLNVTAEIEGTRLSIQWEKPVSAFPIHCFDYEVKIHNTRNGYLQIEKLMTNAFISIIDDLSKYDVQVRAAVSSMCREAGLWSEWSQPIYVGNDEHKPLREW

[2] = molecular target: T2, biotinylated peptide [NH2]…JQS[CH2CH2]biotin comprising a fragment of the human CD20 sequence (human, [NH2] at the N-terminus; [CH2CH2]biotin at the C-terminus; the letter J at position 20 is printed so and is not a standard residue code); assay: BLI Octet RED 384; biotinylated peptide on SAX sensor, antibody in solution; 1:1 global fit
T2 construct: also called CD20 peptide
Experimental: In the case of the biotinylated CD20 peptide, the peptide at a concentration of 5 μg/ml was immobilized on the surface of SAX sensors (High Precision Streptavidin (SAX) biosensors, ForteBio) for 120 seconds. The baseline was recorded in a 1×KB solution for 120 seconds. The sensors containing the loaded peptide were immersed into wells containing the antibody solution (analyte) in 1×KB for 15 seconds. Measurements were carried out for solutions with analyte (antibodies in the case of CD20 peptide) at concentrations of 150 μg/ml, 75 μg/ml, 37.5 μg/ml. Complex dissociation was recorded in 1×KB for 120 seconds.
All measurements were carried out at 30° C., orbital mixing speed was 1,000 revolutions per minute.
To obtain numerical values of kinetic constants (kₒₙ is the on/association rate constant, kdis is the dissociation rate constant, KD is the equilibrium dissociation constant or affinity constant), the resulting sensograms were processed according to the 1:1 interaction model using Global Fit (selection of one set of kon, kdis, KD constants to analyze several sensograms of different concentrations) of the ForteBio Octet Data Analysis 9.0 software.

[3] = molecular target: T3, extracellular domain of the human CSF1R protein (hCSF1R_His) (Homo sapiens, UniProt P07333 20-512); assay: BLI Octet RED 384; antibody on ProA sensor, antigen 30 ug/ml
T3 construct: range 20-512; Molecular weight 57.4 kDa; made in CHO cells; also called hCSF1_His; not shown: C-terminal His and FLAG tags

[4] = molecular target: T4, hIL4R-His, Interleukin-4 receptor subunit alpha (Homo sapiens) aa 27-227 (Homo sapiens, UniProt P24394 27-227); assay: as above
T4 construct: range 27-227; not shown: His tag as the name implies
T4 sequence (looked up): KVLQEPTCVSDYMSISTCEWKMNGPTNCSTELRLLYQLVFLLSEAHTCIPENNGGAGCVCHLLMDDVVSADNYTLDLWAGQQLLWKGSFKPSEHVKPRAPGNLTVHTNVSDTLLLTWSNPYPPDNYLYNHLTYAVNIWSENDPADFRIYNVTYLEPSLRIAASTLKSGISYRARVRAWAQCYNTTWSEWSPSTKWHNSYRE

T2 sequence (peptide, as listed by the source): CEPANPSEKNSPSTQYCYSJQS
T3 sequence (P07333 20-512 limits assumed): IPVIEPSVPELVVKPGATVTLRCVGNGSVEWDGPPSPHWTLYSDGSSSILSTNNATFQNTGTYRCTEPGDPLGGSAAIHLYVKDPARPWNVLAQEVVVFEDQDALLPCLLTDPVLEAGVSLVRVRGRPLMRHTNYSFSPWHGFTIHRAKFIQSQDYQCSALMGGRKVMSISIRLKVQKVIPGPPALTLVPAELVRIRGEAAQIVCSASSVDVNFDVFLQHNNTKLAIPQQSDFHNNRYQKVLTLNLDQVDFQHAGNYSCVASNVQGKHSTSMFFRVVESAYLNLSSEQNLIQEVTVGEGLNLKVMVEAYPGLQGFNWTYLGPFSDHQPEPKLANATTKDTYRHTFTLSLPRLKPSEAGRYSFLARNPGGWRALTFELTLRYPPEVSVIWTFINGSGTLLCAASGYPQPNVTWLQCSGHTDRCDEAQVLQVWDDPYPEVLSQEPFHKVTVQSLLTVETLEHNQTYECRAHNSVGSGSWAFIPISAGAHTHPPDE

binding result [1]: no binding (tested: 757.6 nM)
B1: 02-006, bivalent bispecific chimeric antibody that specifically binds to PD1 and CSF1R (bispecific antibody, human IgG1, kappa, L234A L235A)
heavy 1: QVQLVQSGGGLVQPGGSLRLSCAASGFTFSSYWMYWVRQVPGKGLEWVSAIDTGGGRTYYADSVKGRFAISRVNAKNTMYLQMNSLRAEDTAVYYCARDEGGGTGWGVLKDWPYGLDAWGQGTLVTVSSASTKGPSVFPLAPSSKSTSGGTAALGCLVKDYFPEPVTVSWNSGALTSGVHTFPAVLQSSGLYSLSSVVTVPSSSLGTQTYICNVNHKPSNTKVDKRVEPKSCDKTHTCPPCPAPEAAGGPSVFLFPPKPKDTLYITREPEVTCVVVDVSHEDPEVKFNWYVDGVEVHNAKTKPREEQYNSTYRVVSVLTVLHQDWLNGKEYKCKVSNKALPAPIEKTISKAKGQPREPQVCTLPPSRDELTKNQVSLSCAVKGFYPSDIAVEWESNGQPENNYKTTPPVLDSDGSFFLVSKLTVDKSRWQQGNVFSCSVMHEALHNHYTQKSLSLSPGK
light 1: QPVLTQPLSVSVALGQTARITCGGNNIGSKNVHWYQQKPGQAPVLVIYRDSNRPSGIPERFSGSNSGNTATLTISRAQAGDEADYYCQVWDSSTAVFGTGTKLTVLQRTVAAPSVFIFPPSDEQLKSGTASVVCLLNNFYPREAKVQWKVDNALQSGNSQESVTEQDSKDSTYSLSSTLTLSKADYEKHKVYACEVTHQGLSSPVTKSFNRGEC
heavy 2: not shown
light 2: QAGLTQPPSVSVAPGQTARITCGGNNIGSKSVHWYQQKPGQAPVLVVYGDSDRPSGIPERFSGSNSGNTATLTISRVEAGDEADYYCQVWDISSDHVVFGGGTQLTVLQRQVKPEAWLSSGPSPGPGRLQLVCHVSGFYPKPVWVMWMRGEQEQQGTQLGDILPNANWTWYLRATLDVADGEAAGLSCRVKHSSLEGQDIILYWRGSC
notes: Produced in CHO cells

Kd [2]: 820 nM
koff [2]: 0.177 s⁻¹
kon [2]: 216000 M⁻¹ s⁻¹
B2: 02-009, bivalent bispecific chimeric antibody that specifically binds to CD20 and CSF1R (bispecific antibody, human IgG1, kappa, L234A L235A)
heavy 1: QVQLVESGGGLVRPGGSLRLSCAASEFTFDDYAMSWVRQAPGKGLEWVSAISWNGGSTNYADSVKGRFTISRDNAKNSLYLQMNSLRAEDTALYYCASTVEVAHRRLYKYLEVWGQGTLVTVSSASTKGPSVFPLAPSSKSTSGGTAALGCLVKDYFPEPVTVSWNSGALTSGVHTFPAVLQSSGLYSLSSVVTVPSSSLGTQTYICNVNHKPSNTKVDKRVEPKSCDKTHTCPPCPAPEAAGGPSVFLFPPKPKDTLYITREPEVTCVVVDVSHEDPEVKFNWYVDGVEVHNAKTKPREEQYNSTYRVVSVLTVLHQDWLNGKEYKCKVSNKALPAPIEKTISKAKGQPREPQVCTLPPSRDELTKNQVSLSCAVKGFYPSDIAVEWESNGQPENNYKTTPPVLDSDGSFFLVSKLTVDKSRWQQGNVFSCSVMHEALHNHYTQKSLSLSPGK
light 1: QAGLTQPPSVSVAPGQTARITCGGNNIGSKSVHWYQQKPGQAPVLVVYGDSDRPSGIPERFSGSNSGNTATLTISRVEAGDEADYYCQVWDISSDHVVFGGGTQLTVLRTVAAPSVFIFPPSDEQLKSGTASVVCLLNNFYPREAKVQWKVDNALQSGNSQESVTEQDSKDSTYSLSSTLTLSKADYEKHKVYACEVTHQGLSSPVTKSFNRGEC
heavy 2: not shown
light 2: DIQMTQSPSSLSASVGDRVTITCRASSSVSYMHWYQQKPGKAPKPLIYAPSNLASGVPSRFSGSGSGTDFTLTISSLQPEDFATYYCQQWSFNPPTFGQGTKVEIKQRQVKPEAWLSSGPSPGPGRLQLVCHVSGFYPKPVWVMWMRGEQEQQGTQLGDILPNANWTWYLRATLDVADGEAAGLSCRVKHSSLEGQDIILYWRGSC
notes: Produced in CHO cells

Kd [2]: 1120 nM
koff [2]: 0.342 s⁻¹
kon [2]: 305000 M⁻¹ s⁻¹
binding result [1]: no binding (tested: 757.6 nM)
binding result [3]: no binding (tested: 522.5 nM)
B3: 02-005, bivalent bispecific chimeric antibody that specifically binds to PD1 and CD20 (bispecific antibody, human IgG1, kappa, L234A L235A)
heavy 1: EVQLVESGGGLVQPGGSLRLSCAASGYTFTSYNMHWVRQAPGKGLEWVGAIYPGNGDTSYNQKFKGRFTISVDKSKNTLYLQMNSLRAEDTAVYYCARVVYYSNSYWYFDVWGQGTLVTVSSASTKGPSVFPLAPSSKSTSGGTAALGCLVKDYFPEPVTVSWNSGALTSGVHTFPAVLQSSGLYSLSSVVTVPSSSLGTQTYICNVNHKPSNTKVDKRVEPKSCDKTHTCPPCPAPEAAGGPSVFLFPPKPKDTLYITREPEVTCVVVDVSHEDPEVKFNWYVDGVEVHNAKTKPREEQYNSTYRVVSVLTVLHQDWLNGKEYKCKVSNKALPAPIEKTISKAKGQPREPQVCTLPPSRDELTKNQVSLSCAVKGFYPSDIAVEWESNGQPENNYKTTPPVLDSDGSFFLVSKLTVDKSRWQQGNVFSCSVMHEALHNHYTQKSLSLSPGK
light 1: DIQMTQSPSSLSASVGDRVTITCRASSSVSYMHWYQQKPGKAPKPLIYAPSNLASGVPSRFSGSGSGTDFTLTISSLQPEDFATYYCQQWSFNPPTFGQGTKVEIKRTVAAPSVFIFPPSDEQLKSGTASVVCLLNNFYPREAKVQWKVDNALQSGNSQESVTEQDSKDSTYSLSSTLTLSKADYEKHKVYACEVTHQGLSSPVTKSFNRGEC
heavy 2: not shown
light 2: QPVLTQPLSVSVALGQTARITCGGNNIGSKNVHWYQQKPGQAPVLVIYRDSNRPSGIPERFSGSNSGNTATLTISRAQAGDEADYYCQVWDSSTAVFGTGTKLTVLQQRQVKPEAWLSSGPSPGPGRLQLVCHVSGFYPKPVWVMWMRGEQEQQGTQLGDILPNANWTWYLRATLDVADGEAAGLSCRVKHSSLEGQDIILYWRGSC
notes: Produced in CHO cells

binding result [1]: no binding (tested: 757.6 nM)
binding result [4]: no binding (tested: 1154 nM)
B4: 02-007, bivalent bispecific chimeric antibody that specifically binds to PD1 and CSF1R (bispecific antibody, human IgG1, kappa, L234A L235A)
heavy 1: B2 heavy 1
light 1: B2 light 1
heavy 2: not shown
light 2: B3 light 2
notes: Produced in CHO cells

Kd [2]: 892 nM
koff [2]: 0.329 s⁻¹
kon [2]: 369000 M⁻¹ s⁻¹
binding result [1]: no binding (tested: 757.6 nM)
B5: 02-008, bivalent bispecific chimeric antibody that specifically binds to CD20 and CSF1R (bispecific antibody, human IgG1, kappa, L234A L235A)
heavy 1: B3 heavy 1
light 1: B3 light 1
heavy 2: not shown
light 2: B1 light 2
notes: Produced in CHO cells
